Measurements: the supplement of paper PMC10567573

B1: TRIM63 (parent)
chain: QEKKLSFIEALIQQYQEQLDKSTK

Variants of: B1
Experiment: protein stability index of a GFP-peptide fusion (GPS, HEK-293T) (PSI 1-6); higher = more stable
Conditions: c terminus: a fixed tail appended
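Also: lentivirally expressed fusions sorted by FACS into six bins by GFP to DsRed ratio, PSI derived from sequencing read proportions per bin multiplied by bin number.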

| Variant | protein stability index |
| --- | --- |
| QEKKLSFIEAMIQQYQEQLDKSTK | 3.09 |
| QEKKLSFIEAHIQQYQEQLDKSTK | 4.63 |
| QEKKLSFIEATIQQYQEQLDKSTK | 3.96 |
| QEKKLSFIEAGIQQYQEQLDKSTK | 4.46 |
| QEKKLSFIEAFIQQYQEQLDKSTK | 2.79 |
| QEKKLSFIEAKIQQYQEQLDKSTK | 4.45 |
| QEKKLSFIEAEIQQYQEQLDKSTK | 4.73 |
| QEKKLSFIEAWIQQYQEQLDKSTK | 3.43 |
| QEKKLSFIEAAIQQYQEQLDKSTK | 3.71 |
| QEKKLSFIEALIFQYQEQLDKSTK | 1.84 |
| QEKKLSFIEALIKQYQEQLDKSTK | 2.64 |
| QEKKLSFIEALIYQYQEQLDKSTK | 2.35 |
| QEKKLSFIEALIVQYQEQLDKSTK | 1.98 |
| QEKKLSFIEALILQYQEQLDKSTK | 2.1 |
| QEKKLSFIEALIPQYQEQLDKSTK | 4.35 |
| QEKKLSFIEALIQQYQEDLDKSTK | 3.54 |
| QEKKLSFIEALIQQYQEVLDKSTK | 2.3 |
| QEKKLSFIEALIQQYQEILDKSTK | 2.08 |
| QEKKLSFIEALIQQYQEFLDKSTK | 1.98 |
| QEKKLSFIEALIQQYQESLDKSTK | 2.71 |
| QEKKLSFIEALIQQYQERLDKSTK | 2.51 |
| QEKKLSFIEALIQQYQECLDKSTK | 2.34 |
| QEKKLSFIEALIQQYQEWLDKSTK | 3 |
| QEKKLSFIEALIQQYQEMLDKSTK | 1.81 |

| Variant | protein stability index |
| --- | --- |
| QECKLSFIEALIQQYQEQLDKSTK | 3.24 |
| QEEKLSFIEALIQQYQEQLDKSTK | 3.04 |
| QEHKLSFIEALIQQYQEQLDKSTK | 2.32 |
| QEQKLSFIEALIQQYQEQLDKSTK | 2.85 |
| QEIKLSFIEALIQQYQEQLDKSTK | 2.01 |
| QENKLSFIEALIQQYQEQLDKSTK | 3.11 |
| QEDKLSFIEALIQQYQEQLDKSTK | 3.27 |
| QEPKLSFIEALIQQYQEQLDKSTK | 2.67 |
| QEKKLSFIEALIQQYEEQLDKSTK | 3.09 |
| QEKKLSFIEALIQQYLEQLDKSTK | 1.49 |
| QEKKLSFIEALIQQYHEQLDKSTK | 2.57 |
| QEKKLSFIEALIQQYIEQLDKSTK | 1.87 |
| QEKKLSFIEALIQQYMEQLDKSTK | 1.48 |
| QEKKLSFIEDLIQQYQEQLDKSTK | 3.47 |
| QEKKLSFIERLIQQYQEQLDKSTK | 2.53 |
| QEKKLSFIELLIQQYQEQLDKSTK | 2.37 |
| QEKKLSFIEVLIQQYQEQLDKSTK | 2.38 |
| QEKKLSFIENLIQQYQEQLDKSTK | 2.73 |
| QEKKLSFIETLIQQYQEQLDKSTK | 2.72 |
| QEKKLSFIEYLIQQYQEQLDKSTK | 2.06 |
| QEKKLSFIEPLIQQYQEQLDKSTK | 3.98 |
| QEKKLSFIEILIQQYQEQLDKSTK | 2.54 |
| QEKKLSFIEHLIQQYQEQLDKSTK | 2.75 |
| QEKKLSFIEALIQQWQEQLDKSTK | 1 |

| Variant | protein stability index |
| --- | --- |
| QEKKLSFIEALIQQQQEQLDKSTK | 3.87 |
| QEKKLSFIEALIQQPQEQLDKSTK | 4.56 |
| QEKKLSFIEALIQQNQEQLDKSTK | 3.75 |
| QEKKLSFIEALIQQAQEQLDKSTK | 2.61 |
| QEKKLSFIEALIQQDQEQLDKSTK | 4.75 |
| QEKKLSFIEALIQQRQEQLDKSTK | 4.63 |
| QEKKLSFIEALIQQHQEQLDKSTK | 3.38 |
| QEKKLSFIEALIQQVQEQLDKSTK | 2.09 |
| QEKKLSFIEALIQQFQEQLDKSTK | 1.86 |
| QEKKLSFIEALIQQSQEQLDKSTK | 3.52 |
| QEKKLSFIEALIQQGQEQLDKSTK | 4.41 |
| QEKKLSFIEALIQQLQEQLDKSTK | 2.08 |
| QEKKLSFIEALIQQIQEQLDKSTK | 2.1 |
| QEKKLRFIEALIQQYQEQLDKSTK | 3.16 |
| QEKKLAFIEALIQQYQEQLDKSTK | 2.16 |
| QEKKLWFIEALIQQYQEQLDKSTK | 1.46 |
| QEKKLYFIEALIQQYQEQLDKSTK | 2.09 |
| QEKKLIFIEALIQQYQEQLDKSTK | 1.74 |
| QEKKLKFIEALIQQYQEQLDKSTK | 2.62 |
| QEKKLHFIEALIQQYQEQLDKSTK | 2.39 |
| QEKKLNFIEALIQQYQEQLDKSTK | 2.59 |
| QEKKLCFIEALIQQYQEQLDKSTK | 2.74 |
| QEKKLSFIEALIQQYQEQLDTSTK | 1.75 |
| QEKKLSFIEALIQQYQEQLDQSTK | 3 |

| Variant | protein stability index |
| --- | --- |
| QEKKLSFIEALIQQYQEQLDFSTK | 2.54 |
| QEKKLSFIEALIQQYQEQLDESTK | 3.26 |
| QEKKLSFIEALIQQYQEQLDWSTK | 1.63 |
| QEKKLSFIEALIQQYQEQLDPSTK | 1.99 |
| QEKKLSFIEALIQQYQEQLDVSTK | 3.04 |
| QEKKLSFEEALIQQYQEQLDKSTK | 4.76 |
| QEKKLSFFEALIQQYQEQLDKSTK | 2.78 |
| QEKKLSFVEALIQQYQEQLDKSTK | 1.28 |
| QEKKLSFPEALIQQYQEQLDKSTK | 4.89 |
| QEKKLSFHEALIQQYQEQLDKSTK | 4.92 |
| QEKKLSFCEALIQQYQEQLDKSTK | 4.38 |
| QEKKLSFREALIQQYQEQLDKSTK | 4.08 |
| QKKKLSFIEALIQQYQEQLDKSTK | 1.81 |
| QHKKLSFIEALIQQYQEQLDKSTK | 2.58 |
| QAKKLSFIEALIQQYQEQLDKSTK | 1.63 |
| QNKKLSFIEALIQQYQEQLDKSTK | 1.9 |
| QYKKLSFIEALIQQYQEQLDKSTK | 2.75 |
| QDKKLSFIEALIQQYQEQLDKSTK | 2.74 |
| QGKKLSFIEALIQQYQEQLDKSTK | 2.93 |
| QPKKLSFIEALIQQYQEQLDKSTK | 2.93 |
| QLKKLSFIEALIQQYQEQLDKSTK | 2.73 |
| QMKKLSFIEALIQQYQEQLDKSTK | 1.92 |
| QIKKLSFIEALIQQYQEQLDKSTK | 1.92 |
| QWKKLSFIEALIQQYQEQLDKSTK | 2 |

| Variant | protein stability index |
| --- | --- |
| QEKKLSFIEALIQQYQEQLDKSCK | 2.72 |
| QEKKLSFIEALIQQYQEQLDKSQK | 2.89 |
| QEKKLSFIEALIQQYQEQLDKSKK | 2.49 |
| QEKKLSFIEALIQQYQEQLDKSRK | 2.66 |
| QEKKLSFIEALIQQYQEQLDKSLK | 1.51 |
| QEKKLSFIEALIQQYQEQLDKSDK | 3.33 |
| QEKDLSFIEALIQQYQEQLDKSTK | 3.48 |
| QEKQLSFIEALIQQYQEQLDKSTK | 3.4 |
| QEKELSFIEALIQQYQEQLDKSTK | 2.73 |
| QEKMLSFIEALIQQYQEQLDKSTK | 1.68 |
| QEKGLSFIEALIQQYQEQLDKSTK | 3.03 |
| QEKSLSFIEALIQQYQEQLDKSTK | 2.83 |
| QEKALSFIEALIQQYQEQLDKSTK | 1.87 |
| QEKHLSFIEALIQQYQEQLDKSTK | 3.22 |
| QEKVLSFIEALIQQYQEQLDKSTK | 2.02 |
| QEKILSFIEALIQQYQEQLDKSTK | 1.96 |
| QEKKHSFIEALIQQYQEQLDKSTK | 2.9 |
| QEKKISFIEALIQQYQEQLDKSTK | 2.76 |
| QEKKYSFIEALIQQYQEQLDKSTK | 2.08 |
| QEKKRSFIEALIQQYQEQLDKSTK | 3.05 |
| QEKKKSFIEALIQQYQEQLDKSTK | 3.11 |
| QEKKDSFIEALIQQYQEQLDKSTK | 3.93 |
| QEKKGSFIEALIQQYQEQLDKSTK | 3.91 |
| QEKKMSFIEALIQQYQEQLDKSTK | 2.38 |

| Variant | protein stability index |
| --- | --- |
| QEKKWSFIEALIQQYQEQLDKSTK | 2.12 |
| QEKKLSIIEALIQQYQEQLDKSTK | 2.58 |
| QEKKLSLIEALIQQYQEQLDKSTK | 3.06 |
| QEKKLSWIEALIQQYQEQLDKSTK | 4.19 |
| QEKKLSNIEALIQQYQEQLDKSTK | 4.97 |
| QEKKLSCIEALIQQYQEQLDKSTK | 3.23 |
| QEKKLSSIEALIQQYQEQLDKSTK | 4.28 |
| DEKKLSFIEALIQQYQEQLDKSTK | 2.21 |
| YEKKLSFIEALIQQYQEQLDKSTK | 2.02 |
| FEKKLSFIEALIQQYQEQLDKSTK | 1.91 |
| WEKKLSFIEALIQQYQEQLDKSTK | 2.76 |
| SEKKLSFIEALIQQYQEQLDKSTK | 2.4 |
| LEKKLSFIEALIQQYQEQLDKSTK | 1.49 |
| QEKKLSFIEALIQQYQEQLDKSTH | 2.95 |
| QEKKLSFIEALIQQYQEQLDKSTS | 2.61 |
| QEKKLSFIEALIQQYQEQLDKSTG | 2.71 |
| QEKKLSFIEALIQQYQEQLDKSTM | 2.32 |
| QEKKLSFIEALIQQYQEQLDKSTP | 3.33 |
| QEKKLSFIEALIQQYQEQLDKSTY | 1.36 |
| QEKKLSFIEALIQQYQEQLDKSTT | 2.67 |
| QEKKLSFIEALIQQYQEQLDKSTI | 1.95 |
| QEKKLSFIEALIQQYQEQLDKTTK | 2.75 |
| QEKKLSFIEALIQQYQEQLDKHTK | 2.7 |
| QEKKLSFIEALIQQYQEQLDKETK | 3.21 |

| Variant | protein stability index |
| --- | --- |
| QEKKLSFIEALIQQYQEQLDKKTK | 2.52 |
| QEKKLSFIEALIQQYQEQLDKDTK | 3.1 |
| QEKKLSFIEALIQQYQEQLDKWTK | 1.92 |
| QEKKLSFIEALKQQYQEQLDKSTK | 3.7 |
| QEKKLSFIEALSQQYQEQLDKSTK | 4.28 |
| QEKKLSFIEALMQQYQEQLDKSTK | 2.95 |
| QEKKLSFIEALTQQYQEQLDKSTK | 4.45 |
| QEKKLSFIEALLQQYQEQLDKSTK | 3.51 |
| QEKKLSFIEALRQQYQEQLDKSTK | 2.33 |
| QEKKLSFIQALIQQYQEQLDKSTK | 2.76 |
| QEKKLSFIKALIQQYQEQLDKSTK | 3.62 |
| QEKKLSFILALIQQYQEQLDKSTK | 1.39 |
| QEKKLSFIMALIQQYQEQLDKSTK | 2.22 |
| QEKKLSFIHALIQQYQEQLDKSTK | 2.33 |
| QEKKLSFIWALIQQYQEQLDKSTK | 1.6 |
| QEKKLSFIEALIQQYQEQADKSTK | 4.3 |
| QEKKLSFIEALIQQYQEQFDKSTK | 2.38 |
| QEKKLSFIEALIQQYQEQHDKSTK | 3.54 |
| QEKKLSFIEALIQQYQEQEDKSTK | 3.41 |
| QEKKLSFIEALIQQYQEQWDKSTK | 2.32 |
| QEKKLSFIEALIQQYQEQQDKSTK | 3.21 |
| QEKKLSFIEALIQQYQHQLDKSTK | 2.11 |
| QEKKLSFIEALIQQYQLQLDKSTK | 1.8 |
| QEKKLSFIEALIQQYQIQLDKSTK | 2.14 |

| Variant | protein stability index |
| --- | --- |
| QEKKLSFIEALIQQYQSQLDKSTK | 2.26 |
| QEKKLSFIEALIQQYQGQLDKSTK | 2.21 |
| QEKKLSFIEALIQQYQYQLDKSTK | 2.84 |
| QEKKLSFIEALIQQYQEQLRKSTK | 1.77 |
| QEKKLSFIEALIQQYQEQLQKSTK | 1.92 |
| QEKKLSFIEALIQQYQEQLVKSTK | 1.2 |
| QEKKLSFIEALIQQYQEQLGKSTK | 2.13 |
| QEKKLSFIEALIQQYQEQLMKSTK | 2.98 |
| QEKKLSFIEALIQQYQEQLCKSTK | 1.69 |
| QEKKLSFIEALIQGYQEQLDKSTK | 3.13 |
| QEKKLSFIEALIQEYQEQLDKSTK | 2.91 |
| QEKKLSFIEALIQTYQEQLDKSTK | 3.07 |
| QEKKLSFIEALIQVYQEQLDKSTK | 2.49 |
| QEKKLSFIEALIQCYQEQLDKSTK | 2.8 |
| QEKKLSFIEALIQYYQEQLDKSTK | 1.95 |
| QEKKLSFIEALIQNYQEQLDKSTK | 3.03 |
| QEKKLSFIEALIQHYQEQLDKSTK | 2.03 |
| QEKKLSFIEALIQWYQEQLDKSTK | 1.07 |
| QEKKLSFIEALIQSYQEQLDKSTK | 3.5 |
| QEKKLSFIEALIQPYQEQLDKSTK | 3.86 |
